Experimental data published in PMC9097488.

Tests used:
[1] = target: Crenotalea thermophila TIR-APAZ after removal of the 6xHis-MBP tag (Crenotalea thermophila); experiment: SEC-MALS
[2] = target: MapSPARTA complex (heterodimer of MapAgo and MapTIR-APAZ) (Maribacter polysiphoniae); experiment: SEC-MALS

| Substance | stoichiometry N [1] | stoichiometry N [2] |
| --- | --- | --- |
| Crenotalea thermophila short pAgo (natural protein) | 1 |  |
| MapSPARTA complex (heterodimer of MapAgo and MapTIR-APAZ) |  | 4 |
